Assay [1] has as its target chicken bestrophin-1 crystallization construct, amino acids 1-405 (Best1_(cryst)) (chicken (Gallus gallus)). Nature of the assay: crystal structure.
For assay [2] the target is unchanged. Nature of the assay: SEC.
The target is the same in assay [3]. As to the kind of experiment: SEC. The source holds these as a separate data set. (Size exclusion chromatography separates by hydrodynamic size, large species first.)

From paper PMC4454446 come the findings set out here.

Broadly, the stoichiometry N is a count of units in the complex or per binding partner. For orientation: Kd means the concentration at which binding is half-saturated.

Where two headings read alike, the source gives them in different places.

Molecule “chicken bestrophin-1 crystallization construct, amino acids 1-405 (Best1_(cryst)) (domain or fragment)” had a stoichiometry N in assay [1] of 5.

B1: Fab fragment of mouse monoclonal antibody 10D10 (Fab, V domains shown)
VH: QVQLQQSGPELVRPGASVKMSCKASGYTFTNYWMHWVKQRPGQALEWIGMIDPSKSETTLNQKFRGKATLNVDKSSNTAYMQLSSLTSEDSAVYYCAREVYYFDYWGQGTTLTVSS
VL: DIQMTQSPASLSASVGETVTITCRASENIYSYLTWYQQKQGKSPQLLVYNAKTLTEGVPSRFSGSGSGTQFSLKINSLQPEDFGGYFCQHHYGTPPTFGGGTKLEVK
As for B1, the Kd in assay [2] was 350 nM; in assay [3], 15 nM.
